For one substance, stoichiometry N results are on record in paper doi:10.1101/2023.01.07.523125.

The assay concerns the target human Slack channel (Slo2.2, KCNT1) (human) (UniProt Q5JUK3). The experiment in a line: cryo-EM structure.

As for “human Slack channel (Slo2.2, KCNT1) (from UniProt Q5JUK3 1-1230) (natural protein)”, the stoichiometry N (as a rule, the number of molecules, sites or subunits per partner or assembly) stood at 4.
